We go through one molecule from US20230069835A1 (ACADEMIA SINICA, published 2023).

This test concerns the target T1, microsomal triglyceride transfer protein (MTTP), endogenous, in mouse intestinal epithelial cell lysates (mouse, UniProt O08601 22-894, limits assumed).
T1 construct: Endogenous protein in IEC or intestinal cell lysates of control, PRAP1-/- or E85V mice
T1 sequence (looked up): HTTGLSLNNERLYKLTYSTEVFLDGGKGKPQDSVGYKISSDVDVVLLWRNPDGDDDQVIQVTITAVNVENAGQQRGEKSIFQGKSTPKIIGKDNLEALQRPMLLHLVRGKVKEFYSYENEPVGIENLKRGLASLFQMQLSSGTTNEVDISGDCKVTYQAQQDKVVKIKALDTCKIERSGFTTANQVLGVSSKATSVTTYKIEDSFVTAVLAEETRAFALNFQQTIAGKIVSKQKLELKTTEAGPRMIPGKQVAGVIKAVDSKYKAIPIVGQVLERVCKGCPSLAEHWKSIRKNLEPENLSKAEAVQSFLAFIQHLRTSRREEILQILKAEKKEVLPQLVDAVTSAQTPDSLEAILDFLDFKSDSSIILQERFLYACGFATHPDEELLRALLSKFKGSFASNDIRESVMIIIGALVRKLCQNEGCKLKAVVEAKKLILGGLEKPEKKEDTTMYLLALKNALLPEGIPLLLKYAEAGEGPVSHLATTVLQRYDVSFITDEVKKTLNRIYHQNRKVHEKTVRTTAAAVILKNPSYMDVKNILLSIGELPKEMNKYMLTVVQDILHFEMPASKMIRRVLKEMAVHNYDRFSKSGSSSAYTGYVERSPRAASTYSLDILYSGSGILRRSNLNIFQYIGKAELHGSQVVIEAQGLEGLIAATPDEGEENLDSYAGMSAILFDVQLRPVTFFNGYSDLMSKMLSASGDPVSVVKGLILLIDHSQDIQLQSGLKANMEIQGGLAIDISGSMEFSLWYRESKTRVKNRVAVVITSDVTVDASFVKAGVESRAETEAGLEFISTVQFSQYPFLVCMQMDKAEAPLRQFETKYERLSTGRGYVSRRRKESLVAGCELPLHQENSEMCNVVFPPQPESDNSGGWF
Briefly: co-immunoprecipitation from IEC lysates with PRAP1- or MTTP-specific antibody, immunoblot. The procedure:
FIGS. 2A to 2H depict that PRAP1 formed a complex with microsomal triglyceride transfer protein (MTTP) and was involved in MTTP-mediated lipid transfer according to Example 2 of the present disclosure. FIG. 2A: Total intestinal cell lysates from control (WT), PRAP1^{-/-} (KO) or the E85V mutant mice (E85V) were immunoprecipitated with MTTP- or PRAP1-specific antibody, and the immune complexes (lanes 4-6) along with 1/50 input lysates as indicated were analyzed by immunoblotting using MTTP or PRAP1 antibodies. FIGS. 2B and 2C: Recombinant PRAP1 (rPRAR1, i.e., PRAP1ΔN20; designated as “rWT” in FIGS. 2B and 2C) stimulated the triglyceride (TG; FIG. 2B) and phospholipid (FIG. 2C) transfer activity of MTTP in the intestinal epithelial cells (IECs) purified from PRAP1^{-/-} mice. FIG. 2D: Immunoblotting analysis of MTTP expression in the intestinal cell lysates of control (PRAP1^{+/+}) or PRAP1^{-/-} mice. FIGS. 2E and 2F: MTTP-mediated transfer of TG (FIG. 2E) or phospholipid (FIG. 2F) was determined in PRAP1-deficient (PRAP1^{-/-}) IEC homogenates that had been pre-incubated with 10 μg of recombinant WT PRAP1 or the indicated mutant of PRAP1 (all without N-terminal 20 aa). […] N=3-4 for each panel. *, p<0.05; **, p<0.01; ***, p<0.001; n.s., p>0.05. FIGS. 2B, 2C, 2G and 2H: compared to the activity of PRAP1^{+/+} (bar 1). FIGS. 2E and 2F: compared to the activity in PRAP^{-/-} (bar 2). […]
In general terms: In western blotting, separated proteins are transferred to a membrane and probed.

B1: endogenous E85V mutant PRAP1 in intestinal epithelial cells of E85V knock-in mice (other)
chain: APAHQVPVKTKGKHVFPEQETEKVWDTRALEPLEKDNQLGPLLPEPKQKPAAAEEKRPDAMTWVVTEDILSHLRSPLQGPELDLDSIDHPMSDDVQDEEVPQSRPILYRQVLQGPEEDLDHLAHSMEDS
notes: Endogenous protein in lysates of PRAP1 E85V/E85V mice; The 20-aa signal peptide is called putative; also called E85V mutant of PRAP1; mouse E85V mutant PRAP1
As for B1, the binding result was “no binding”.
